Legend:
Assay in all cases: IP/MS, LZTR1 R810W-FLAG, U87
MAP4K4 = MAP4K4 (human, UniProt O95819 2-1239, limits assumed)
How it was run: (§1)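 Read-out: spectral counts from LC-MS/MS (Orbitrap Fusion) after MaxQuant identification. Variable modifications were Met oxidation, protein N-terminal acetylation and N/Q deamidation.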

MTR = MTR (human, UniProt Q99707 1-1265, limits assumed)
How it was run: as §1

FKBP15 = target: T1, FKBP15 (human, UniProt Q5T1M5 1-1219, limits assumed)
T1 sequence (looked up): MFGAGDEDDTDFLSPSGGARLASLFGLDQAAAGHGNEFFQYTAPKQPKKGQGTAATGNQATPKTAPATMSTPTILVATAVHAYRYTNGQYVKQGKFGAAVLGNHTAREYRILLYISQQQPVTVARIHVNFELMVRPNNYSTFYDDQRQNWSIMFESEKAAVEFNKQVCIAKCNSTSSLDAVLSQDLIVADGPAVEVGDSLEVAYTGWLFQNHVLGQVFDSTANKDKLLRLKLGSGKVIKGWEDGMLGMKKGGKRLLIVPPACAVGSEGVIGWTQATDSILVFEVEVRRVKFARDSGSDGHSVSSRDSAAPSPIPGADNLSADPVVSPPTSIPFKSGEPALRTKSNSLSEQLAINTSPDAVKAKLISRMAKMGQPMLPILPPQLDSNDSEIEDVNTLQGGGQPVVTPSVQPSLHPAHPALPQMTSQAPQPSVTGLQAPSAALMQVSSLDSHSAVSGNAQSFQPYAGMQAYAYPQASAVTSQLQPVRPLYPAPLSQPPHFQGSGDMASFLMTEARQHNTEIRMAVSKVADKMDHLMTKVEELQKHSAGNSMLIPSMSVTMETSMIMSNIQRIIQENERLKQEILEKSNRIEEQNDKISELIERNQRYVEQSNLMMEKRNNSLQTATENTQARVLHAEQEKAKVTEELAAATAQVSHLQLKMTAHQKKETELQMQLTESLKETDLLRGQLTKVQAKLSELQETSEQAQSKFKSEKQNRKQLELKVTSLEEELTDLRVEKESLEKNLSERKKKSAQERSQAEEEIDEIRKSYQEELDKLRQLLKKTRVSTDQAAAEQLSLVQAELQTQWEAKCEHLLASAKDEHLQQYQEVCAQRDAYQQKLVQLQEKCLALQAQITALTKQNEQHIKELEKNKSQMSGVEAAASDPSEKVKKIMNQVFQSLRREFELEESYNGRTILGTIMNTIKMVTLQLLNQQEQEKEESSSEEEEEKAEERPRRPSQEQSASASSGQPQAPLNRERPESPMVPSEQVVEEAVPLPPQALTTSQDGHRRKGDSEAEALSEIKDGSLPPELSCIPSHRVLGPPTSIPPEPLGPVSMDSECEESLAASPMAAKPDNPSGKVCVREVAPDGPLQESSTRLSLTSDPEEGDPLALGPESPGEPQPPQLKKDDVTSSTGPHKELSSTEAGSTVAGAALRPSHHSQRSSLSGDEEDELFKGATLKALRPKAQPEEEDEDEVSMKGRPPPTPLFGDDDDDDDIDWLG
How it was run: as §1

Measured: binding result

MAP4K4, sequence (O95819 2-1239 limits assumed): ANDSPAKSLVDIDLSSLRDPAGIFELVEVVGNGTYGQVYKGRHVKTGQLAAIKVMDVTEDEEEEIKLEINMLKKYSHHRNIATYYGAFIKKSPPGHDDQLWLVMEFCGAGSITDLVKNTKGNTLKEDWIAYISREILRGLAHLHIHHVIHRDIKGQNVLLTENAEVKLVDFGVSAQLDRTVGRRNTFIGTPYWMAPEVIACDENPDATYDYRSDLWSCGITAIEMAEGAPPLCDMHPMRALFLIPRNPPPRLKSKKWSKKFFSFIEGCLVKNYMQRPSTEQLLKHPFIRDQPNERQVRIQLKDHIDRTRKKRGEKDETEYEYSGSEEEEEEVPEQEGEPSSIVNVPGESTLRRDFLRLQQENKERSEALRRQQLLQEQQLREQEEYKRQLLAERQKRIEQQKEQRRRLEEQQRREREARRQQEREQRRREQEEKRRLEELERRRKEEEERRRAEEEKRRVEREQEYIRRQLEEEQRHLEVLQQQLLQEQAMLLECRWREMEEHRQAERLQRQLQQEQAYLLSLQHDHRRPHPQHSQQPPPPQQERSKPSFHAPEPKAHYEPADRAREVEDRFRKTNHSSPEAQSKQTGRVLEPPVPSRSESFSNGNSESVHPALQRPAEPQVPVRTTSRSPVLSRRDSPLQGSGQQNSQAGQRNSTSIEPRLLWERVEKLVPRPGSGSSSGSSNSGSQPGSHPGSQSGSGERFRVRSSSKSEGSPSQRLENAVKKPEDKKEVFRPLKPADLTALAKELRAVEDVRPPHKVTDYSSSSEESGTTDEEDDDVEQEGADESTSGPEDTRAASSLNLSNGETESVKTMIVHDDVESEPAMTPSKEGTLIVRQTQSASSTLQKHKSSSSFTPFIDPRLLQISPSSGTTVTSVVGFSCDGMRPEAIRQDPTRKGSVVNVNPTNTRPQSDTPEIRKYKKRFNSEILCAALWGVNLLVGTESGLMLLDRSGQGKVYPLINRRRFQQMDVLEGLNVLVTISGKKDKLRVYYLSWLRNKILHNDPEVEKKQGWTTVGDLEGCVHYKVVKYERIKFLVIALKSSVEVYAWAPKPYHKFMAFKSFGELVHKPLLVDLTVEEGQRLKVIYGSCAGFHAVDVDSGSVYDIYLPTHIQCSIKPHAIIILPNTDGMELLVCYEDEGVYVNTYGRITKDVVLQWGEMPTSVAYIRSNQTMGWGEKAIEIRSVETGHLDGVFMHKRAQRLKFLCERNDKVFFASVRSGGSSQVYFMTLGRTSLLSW
MTR, sequence (Q99707 whole entry): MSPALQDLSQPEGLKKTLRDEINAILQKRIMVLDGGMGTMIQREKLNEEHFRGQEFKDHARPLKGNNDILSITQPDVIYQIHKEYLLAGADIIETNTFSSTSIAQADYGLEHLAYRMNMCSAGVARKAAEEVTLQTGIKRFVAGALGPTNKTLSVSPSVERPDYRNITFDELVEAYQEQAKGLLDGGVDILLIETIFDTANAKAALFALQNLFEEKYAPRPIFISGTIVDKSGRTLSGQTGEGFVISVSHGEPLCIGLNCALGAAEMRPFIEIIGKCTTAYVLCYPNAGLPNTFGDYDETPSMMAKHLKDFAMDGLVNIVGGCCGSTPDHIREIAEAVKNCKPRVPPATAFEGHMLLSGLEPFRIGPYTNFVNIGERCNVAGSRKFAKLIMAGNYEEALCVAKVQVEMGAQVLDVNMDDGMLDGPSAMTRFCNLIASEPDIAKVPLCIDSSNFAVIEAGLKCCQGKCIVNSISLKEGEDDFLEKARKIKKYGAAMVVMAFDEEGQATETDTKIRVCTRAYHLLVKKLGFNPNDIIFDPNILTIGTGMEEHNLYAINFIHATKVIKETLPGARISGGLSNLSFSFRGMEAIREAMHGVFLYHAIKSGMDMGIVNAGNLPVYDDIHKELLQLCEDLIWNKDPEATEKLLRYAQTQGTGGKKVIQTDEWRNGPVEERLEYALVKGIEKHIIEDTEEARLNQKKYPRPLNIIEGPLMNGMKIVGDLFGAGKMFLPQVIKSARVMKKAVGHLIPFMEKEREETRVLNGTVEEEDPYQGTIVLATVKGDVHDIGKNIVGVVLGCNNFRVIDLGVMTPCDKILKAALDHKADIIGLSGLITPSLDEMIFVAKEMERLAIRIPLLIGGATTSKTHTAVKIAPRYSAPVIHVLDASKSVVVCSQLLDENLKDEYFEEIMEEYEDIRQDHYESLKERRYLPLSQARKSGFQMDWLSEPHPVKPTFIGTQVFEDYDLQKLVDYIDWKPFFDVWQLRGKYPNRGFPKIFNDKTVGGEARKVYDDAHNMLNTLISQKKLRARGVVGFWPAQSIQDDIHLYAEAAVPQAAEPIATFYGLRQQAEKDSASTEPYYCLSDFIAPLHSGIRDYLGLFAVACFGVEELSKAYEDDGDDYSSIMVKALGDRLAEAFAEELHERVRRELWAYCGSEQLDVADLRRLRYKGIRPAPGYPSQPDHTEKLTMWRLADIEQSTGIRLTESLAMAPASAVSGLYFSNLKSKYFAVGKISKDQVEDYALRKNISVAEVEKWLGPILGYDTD

B1: LZTR1 R810W-FLAG (other, human, UniProt Q8N653 1-840, looked up)
chain: MAGPGSTGGQIGAAALAGGARSKVAPSVDFDHSCSDSVEYLTLNFGPFETVHRWRRLPPCDEFVGARRSKHTVVAYKDAIYVFGGDNGKTMLNDLLRFDVKDCSWCRAFTTGTPPAPRYHHSAVVYGSSMFVFGGYTGDIYSNSNLKNKNDLFEYKFATGQWTEWKIEGRLPVARSAHGATVYSDKLWIFAGYDGNARLNDMWTIGLQDRELTCWEEVAQSGEIPPSCCNFPVAVCRDKMFVFSGQSGAKITNNLFQFEFKDKTWTRIPTEHLLRGSPPPPQRRYGHTMVAFDRHLYVFGGAADNTLPNELHCYDVDFQTWEVVQPSSDSEVGGAEVPERACASEEVPTLTYEERVGFKKSRDVFGLDFGTTSAKQPTQPASELPSGRLFHAAAVISDAMYIFGGTVDNNIRSGEMYRFQFSCYPKCTLHEDYGRLWESRQFCDVEFVLGEKEECVQGHVAIVTARSRWLRRKITQARERLAQKLEQEAAPVPREAPGVAAGGARPPLLHVAIREAEARPFEVLMQFLYTDKIKYPRKGHVEDVLLIMDVYKLALSFQLCRLEQLCRQYIEASVDLQNVLVVCESAARLQLSQLKEHCLNFVVKESHFNQVIMMKEFERLSSPLIVEIVRRKQQPPPRTPLDQPVDIGTSLIQDMKAYLEGAGAEFCDITLLLDGHPRPAHKAILAARSSYFEAMFRSFMPEDGQVNISIGEMVPSRQAFESMLRYIYYGEVNMPPEDSLYLFAAPYYYGFYNNRLQAYCKQNLEMNVTVQNVLQILEAADKTQALDMKRHCLHIIVHQFTKVSKLPTLWSLSQQLLLDIIDSLASHISDKQCAELGADI
notes: Stably expressed in U87 cells by lentivirus; also called LZTR1-FLAG-R810W; LZTR1 RW; not shown: FLAG tag
binds: MAP4K4 | MTR | FKBP15
